Data: publication PMC4914093 (Nucleic Acids Research, 2016)

Molecular target: T1, Rev1 C-terminal domain (876–985) of the Rad5–Rev1 fusion protein (S. cerevisiae, UniProt P12689 876-985)
T1 sequence (looked up): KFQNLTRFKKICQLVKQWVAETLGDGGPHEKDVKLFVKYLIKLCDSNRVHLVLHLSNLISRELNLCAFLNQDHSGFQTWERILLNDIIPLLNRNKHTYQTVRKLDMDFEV
Assay: crystal structure

- binding result: binds
Binder: EQEERKRFFNDDLDTS (peptide, UniProt P32849 5-20, looked up) [Rad5 peptide (5–20) of the Rad5–Rev1 fusion protein]
